# Experimental data taken from PMC4973297, “Crystal structure of the PAS domain of the hEAG potassium channel” (Acta Crystallographica. Section F, Structural Biology …, 2016).
# B1: N-PAS domain of the human EAG channel (residues 1-146) (domain or fragment, UniProt O95259 1-146, looked up)
# chain: MTMAGGRRGLVAPQNTFLENIVRRSNDTNFVLGNAQIVDWPIVYSNDGFCKLSGYHRAEVMQKSSTCSFMYGELTDKDTIEKVRQTFENYEMNSFEILMYKKNRTPVWFFVKIAPIRNEQDKVVLFLCTFSDITAFKQPIEDDSCK
# notes: human ether-a-go-go potassium channel (hEAG), N-terminal residues 1-146 holding the PAS domain; amplified from a human cDNA library; calculated mass 16 933.16 Da; The crystal has six molecules per asymmetric unit; Only about residues 27/28 to 135/137 are built in the model; Residues left by PreScission cleavage are not described; also called hEAG N-PAS domain; PAS domain of hEAG; not shown: GST, …
# Biological target: the molecule itself
# Test: SEC; HiLoad 26/60 Superdex 200, 20 mM Tris-HCl pH 7.5, 200 mM NaCl, 5 mM DTT; last step of the purification
protein,measurement,value
B1,stoichiometry N,2
